# Source: US20230220589A1
# Assays:
# [1] = target: M44-modified A NTAA target peptides (M44-A-P2-peptide); assay: encoding assay; P2 D
# [2] = target: M44-modified F NTAA target peptides (M44-F-P2-peptide); assay: encoding assay; P2 D;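 also: fraction of recording tags encoded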
# [3] = target: M44-modified G NTAA target peptides (M44-G-P2-peptide); assay: encoding assay; P2 D;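 also: fraction of recording tags encoded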
# [4] = target: M44-modified I NTAA target peptides (M44-I-P2-peptide); assay: encoding assay; P2 D
# [5] = target: M44-modified L NTAA target peptides (M44-L-P2-peptide); assay: encoding assay; P2 D;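 also: fraction of recording tags encoded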
# [6] = target: M44-modified M NTAA target peptides; assay: encoding assay; P2 D
# [7] = target: M44-modified N NTAA target peptides; assay: encoding assay; P2 D
# [8] = target: M44-modified Q NTAA target peptides; assay: encoding assay; P2 D
# [9] = target: M44-modified W NTAA target peptides; assay: encoding assay; P2 D;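 also: fraction of recording tags encoded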
# [10] = target: M44-modified Y NTAA target peptides (M44-Y-P2-peptide); assay: encoding assay; P2 D;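 also: fraction of recording tags encoded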
# [11] = target: M44-modified E NTAA target peptides; assay: encoding assay; P2 G;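 also: fraction of recording tags encoded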
# [12] = target: M44-modified F NTAA target peptides (M44-F-P2-peptide); assay: encoding assay; P2 G;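 also: fraction of recording tags encoded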
# [13] = target: M44-modified I NTAA target peptides (M44-I-P2-peptide); assay: encoding assay; P2 G
# [14] = target: M44-modified L NTAA target peptides (M44-L-P2-peptide); assay: encoding assay; P2 G;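 also: fraction of recording tags encoded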
# [15] = target: M44-modified M NTAA target peptides; assay: encoding assay; P2 G
# [16] = target: M44-modified Q NTAA target peptides; assay: encoding assay; P2 G
# [17] = target: M44-modified T NTAA target peptides; assay: encoding assay; P2 G
# [18] = target: M44-modified V NTAA target peptides; assay: encoding assay; P2 G;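 also: fraction of recording tags encoded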
# [19] = target: M44-modified W NTAA target peptides; assay: encoding assay; P2 G;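 also: fraction of recording tags encoded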
# [20] = target: M44-modified Y NTAA target peptides (M44-Y-P2-peptide); assay: encoding assay; P2 G;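 also: fraction of recording tags encoded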
# [21] = target: M44-modified A NTAA target peptides (M44-A-P2-peptide); assay: encoding assay; P2 L
# [22] = target: M44-modified D NTAA target peptides; assay: encoding assay; P2 L;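 also: fraction of recording tags encoded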
# [23] = target: M44-modified E NTAA target peptides; assay: encoding assay; P2 L;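 also: fraction of recording tags encoded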
# [24] = target: M44-modified F NTAA target peptides (M44-F-P2-peptide); assay: encoding assay; P2 L;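 also: fraction of recording tags encoded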
# [25] = target: M44-modified G NTAA target peptides (M44-G-P2-peptide); assay: encoding assay; P2 L;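 also: fraction of recording tags encoded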
# [26] = target: M44-modified H NTAA target peptides; assay: encoding assay; P2 L
# [27] = target: M44-modified I NTAA target peptides (M44-I-P2-peptide); assay: encoding assay; P2 L
# [28] = target: M44-modified L NTAA target peptides (M44-L-P2-peptide); assay: encoding assay; P2 L;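 also: fraction of recording tags encoded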
# [29] = target: M44-modified M NTAA target peptides; assay: encoding assay; P2 L
# [30] = target: M44-modified N NTAA target peptides; assay: encoding assay; P2 L
# [31] = target: M44-modified P NTAA target peptides; assay: encoding assay; P2 L;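 also: fraction of recording tags encoded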
# [32] = target: M44-modified Q NTAA target peptides; assay: encoding assay; P2 L
# [33] = target: M44-modified S NTAA target peptides; assay: encoding assay; P2 L
# [34] = target: M44-modified T NTAA target peptides; assay: encoding assay; P2 L
# [35] = target: M44-modified V NTAA target peptides; assay: encoding assay; P2 L;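 also: fraction of recording tags encoded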
# [36] = target: M44-modified W NTAA target peptides; assay: encoding assay; P2 L;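 also: fraction of recording tags encoded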
# [37] = target: M44-modified Y NTAA target peptides (M44-Y-P2-peptide); assay: encoding assay; P2 L;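 also: fraction of recording tags encoded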
# [38] = target: M44-modified A NTAA target peptides (M44-A-P2-peptide); assay: encoding assay; P2 T
# [39] = target: M44-modified E NTAA target peptides; assay: encoding assay; P2 T;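 also: fraction of recording tags encoded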
# [40] = target: M44-modified F NTAA target peptides (M44-F-P2-peptide); assay: encoding assay; P2 T;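 also: fraction of recording tags encoded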
# [41] = target: M44-modified G NTAA target peptides (M44-G-P2-peptide); assay: encoding assay; P2 T;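 also: fraction of recording tags encoded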
# [42] = target: M44-modified I NTAA target peptides (M44-I-P2-peptide); assay: encoding assay; P2 T
# [43] = target: M44-modified L NTAA target peptides (M44-L-P2-peptide); assay: encoding assay; P2 T;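 also: fraction of recording tags encoded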
# [44] = target: M44-modified M NTAA target peptides; assay: encoding assay; P2 T
# [45] = target: M44-modified N NTAA target peptides; assay: encoding assay; P2 T
# [46] = target: M44-modified P NTAA target peptides; assay: encoding assay; P2 T;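 also: fraction of recording tags encoded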
# [47] = target: M44-modified Q NTAA target peptides; assay: encoding assay; P2 T
# [48] = target: M44-modified T NTAA target peptides; assay: encoding assay; P2 T
# [49] = target: M44-modified V NTAA target peptides; assay: encoding assay; P2 T;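 also: fraction of recording tags encoded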
# [50] = target: M44-modified Y NTAA target peptides (M44-Y-P2-peptide); assay: encoding assay; P2 T;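 also: fraction of recording tags encoded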
binder,measurement,setting,value
"engineered M44-L binder (SEQ ID NO: 31) (designed binder, not shown: small tags and cut ends; large carriers) QDSTQNLIPAPPLISVPLQPGFWTERFQGRWFLVGFAGNAVQKERQSRLTMQSLILELQEDNSYNITAINVRGQGCRYIISTLVPSSRPGQFTLGNIHSYPQIQSLDVQVADTDYDQFAMVFLQGTSENKQYFEVALAGRTKGLSDELKERFVSFAKSLGLKDNNIVFSVPTDQCIDN",encoding yield,[1],0.03
same,encoding yield,[2],0.03
same,encoding yield,[3],0.02
same,encoding yield,[4],0.01
same,encoding yield,[5],0.04
same,encoding yield,[6],0.02
same,encoding yield,[7],0.02
same,encoding yield,[8],0.02
same,encoding yield,[9],0.02
same,encoding yield,[10],0.03
same,encoding yield,[11],0.02
same,encoding yield,[12],0.09
same,encoding yield,[13],0.09
same,encoding yield,[14],0.09
same,encoding yield,[15],0.02
same,encoding yield,[16],0.01
same,encoding yield,[17],0.04
same,encoding yield,[18],0.02
same,encoding yield,[19],0.04
same,encoding yield,[20],0.03
same,encoding yield,[21],0.03
same,encoding yield,[22],0.03
same,encoding yield,[23],0.03
same,encoding yield,[24],0.06
same,encoding yield,[25],0.02
same,encoding yield,[26],0.03
same,encoding yield,[27],0.06
same,encoding yield,[28],0.46
same,encoding yield,[29],0.08
same,encoding yield,[30],0.17
same,encoding yield,[31],0.02
same,encoding yield,[32],0.04
same,encoding yield,[33],0.05
same,encoding yield,[34],0.02
same,encoding yield,[35],0.04
same,encoding yield,[36],0.05
same,encoding yield,[37],0.09
same,encoding yield,[38],0.03
same,encoding yield,[39],0.01
same,encoding yield,[40],0.05
same,encoding yield,[41],0.04
same,encoding yield,[42],0.07
same,encoding yield,[43],0.15
same,encoding yield,[44],0.01
same,encoding yield,[45],0.02
same,encoding yield,[46],0.02
same,encoding yield,[47],0.02
same,encoding yield,[48],0.04
same,encoding yield,[49],0.04
same,encoding yield,[50],0.07
"engineered M44-A binder (SEQ ID NO: 42) (designed binder, not shown: small tags and cut ends; large carriers) QVSVQPNFQQDKFLGRWFVAGLASNSSWDREKVAALSGAKMVVAPATDGGLNVTRTMLRKNQCETYTGLLQPAGSLGSYSWRSPHPGSTGSESVVETDYDQYALVYGQGSKGPGEDLRAAALWSRTQTPRAELKEKFTAFSKAQGFTEDTIVFLPQTDKCMTEQ",encoding yield,[1],0.03
same,encoding yield,[2],0.06
same,encoding yield,[3],0.03
same,encoding yield,[4],0.02
same,encoding yield,[5],0.04
same,encoding yield,[6],0.04
same,encoding yield,[7],0.02
same,encoding yield,[8],0.02
same,encoding yield,[9],0.03
same,encoding yield,[10],0.03
same,encoding yield,[11],0.03
same,encoding yield,[12],0.04
same,encoding yield,[13],0.08
same,encoding yield,[14],0.03
same,encoding yield,[15],0.01
same,encoding yield,[16],0.02
same,encoding yield,[17],0.11
same,encoding yield,[18],0.05
same,encoding yield,[19],0.01
same,encoding yield,[20],0.02
same,encoding yield,[21],0.37
same,encoding yield,[22],0.02
same,encoding yield,[23],0.03
same,encoding yield,[24],0.02
same,encoding yield,[25],0.16
same,encoding yield,[26],0.03
same,encoding yield,[27],0.03
same,encoding yield,[28],0.18
same,encoding yield,[29],0.04
same,encoding yield,[30],0.05
same,encoding yield,[31],0.02
same,encoding yield,[32],0.04
same,encoding yield,[33],0.27
same,encoding yield,[34],0.11
same,encoding yield,[35],0.15
same,encoding yield,[36],0.02
same,encoding yield,[37],0.07
same,encoding yield,[38],0.24
same,encoding yield,[39],0.01
same,encoding yield,[40],0.04
same,encoding yield,[41],0.07
same,encoding yield,[42],0.05
same,encoding yield,[43],0.05
same,encoding yield,[44],0.01
same,encoding yield,[45],0.03
same,encoding yield,[46],0.05
same,encoding yield,[47],0.05
same,encoding yield,[48],0.1
same,encoding yield,[49],0.05
same,encoding yield,[50],0.05
"engineered M44-L binder (SEQ ID NO: 21) (designed binder, not shown: small tags and cut ends; large carriers) QVSVQPNFQQDKFLGRWFYAGHASNSSWYREKVAALSMAKLVVAPATDGGLNATETFLRKNQCETITSLLQPAGSLGSYSSRSPHGGSTWSTSVVETDYDQYALLYLQGSKGPGEDFRGAILASRTQTPRAELKEKFTAFSKAQGFTEDTIVFLPQTDKCMTEQ",encoding yield,[1],0.01
same,encoding yield,[2],0.01
same,encoding yield,[3],0.01
same,encoding yield,[4],0
same,encoding yield,[5],0.01
same,encoding yield,[6],0.01
same,encoding yield,[7],0.01
same,encoding yield,[8],0.01
same,encoding yield,[9],0.01
same,encoding yield,[10],0.01
same,encoding yield,[11],0.01
same,encoding yield,[12],0.03
same,encoding yield,[13],0.17
same,encoding yield,[14],0.07
same,encoding yield,[15],0.01
same,encoding yield,[16],0.01
same,encoding yield,[17],0.02
same,encoding yield,[18],0.02
same,encoding yield,[19],0.01
same,encoding yield,[20],0.01
same,encoding yield,[21],0.01
same,encoding yield,[22],0.01
same,encoding yield,[23],0.01
same,encoding yield,[24],0.01
same,encoding yield,[25],0.01
same,encoding yield,[26],0.01
same,encoding yield,[27],0.03
same,encoding yield,[28],0.22
same,encoding yield,[29],0.03
same,encoding yield,[30],0.02
same,encoding yield,[31],0.01
same,encoding yield,[32],0.02
same,encoding yield,[33],0.02
same,encoding yield,[34],0.01
same,encoding yield,[35],0.02
same,encoding yield,[36],0.02
same,encoding yield,[37],0.03
same,encoding yield,[38],0.01
same,encoding yield,[39],0.01
same,encoding yield,[40],0.02
same,encoding yield,[41],0.01
same,encoding yield,[42],0.14
same,encoding yield,[43],0.1
same,encoding yield,[44],0
same,encoding yield,[45],0.01
same,encoding yield,[46],0.01
same,encoding yield,[47],0.01
same,encoding yield,[48],0.01
same,encoding yield,[49],0.02
same,encoding yield,[50],0.02
